Results taken from patent US20120114590A1 (priority 2005, published 2012).

How the values were obtained:
mouse B cells = test: 3H-thymidine incorporation by mouse B cells; format: cell-based; details: 72 hrs culture
Protocol: Mouse B cells were isolated from 2 Balb/C spleens (7 months old) by depleting CD43+ cells using MACS magnetic beads. Purified B cells were cultured in vitro with LPS, anti-IgM or anti-CD40 monoclonal antibodies. Mouse IL-28 or mouse IFNα was added to the cultures and ^3H-thymidine was added at 48 hrs. and ^3H-thymidine incorporation was measured after 72 hrs. culture.

[1] = test system: 293 HEK cells overexpressing zcytor19; test: Inhibition of ligand-induced ISRE-luciferase signaling by soluble receptors; format: cell-based, human; details: 10 ng/ml ligand, 10 micrograms/ml soluble receptor, 4-hour; relative to PBS alone
AML-12 cells = test: ISG induction in the mouse liver cell line AML-12 (real-time PCR); format: cell-based; details: AML-12, 20 ng/ml, 48 hour time point; mRNA relative to HPRT gene expression
Protocol: AML-12 cells were plated in 6-well plates in complete DMEM media at a concentration of 2×10^6 cells/well. […] As a control, cells were either stimulated with mouse IFNα (positive control) or unstimulated (negative). […] RNA was isolated from cell pellets using RNAEasy-kit® (Qiagen, Valencia, Calif.). RNA was treated with DNase (Millipore, Billerica, Mass.) to clean RNA of any contaminating DNA. cDNA was generated using Perkin-Elmer RT mix. ISG gene induction was evaluated by real-time PCR using primers and probes specific for mouse OAS, Pkr and Mx1. To obtain quantitative data, HPRT real-time PCR was duplexed with ISG PCR. A standard curve was obtained using known amounts of RNA from IFN-stimulated mouse PBLs. All data are shown as expression relative to internal HPRT expression.

[2] = test system: ISRE signaling in HepG2 cells; details: 100 ng/ml ligand, 4-hour incubation; RLU over medium alone
adenoviral vector AdGFP = test: Adenoviral vector (AdGFP) liver pathology model in C57Bl/6 mice; details: AdGFP-infected C57Bl/6 mice, 50 μg i.p., 7 doses

B1: Zcyto24: mouse IL-28A (zcyto24), SEQ ID NO:8 (protein, listed as Mus musculus)
chain: MKPETAGGHMLLLLLPLLLAAVLTRTQADPVPRATRLPVEAKDCHIAQFKSLSPKELQAFKKAKDAIEKRLLEKDLRCSSHLFPRAWDLKQLQVQERPKALQAEVALTLKVWENMTDSALATILGQPLHTLSHIHSQLQTCTQLQATAEPRSPSRRLSRWLHRLQEAQSKETPGCLEASVTSNLFRLLTRDLKCVANGDQCV
3H thymidine incorporation by mouse B cells stimulated with anti-CD40 MAb (mouse B cells): increased
3H-thymidine incorporation by mouse B cells stimulated with LPS or anti-IgM (mouse B cells; IFNα at 10 ng/ml, mouse IL-28 any concentration tested including 1000 ng/ml): did not inhibit
Percent Inhibition of Ligand-induced ISRE Signaling by HuCRF2-4-Fc [1]: 82%
Percent Inhibition of Ligand-induced ISRE Signaling by Huzcytor19-Fc [1]: 90%
Percent Inhibition of Ligand-induced ISRE Signaling by Huzcytor19-Fc/huCRF2-4-Fc [1]: 47%
Percent Inhibition of Ligand-induced ISRE Signaling by Muzcytor19-Ig [1]: 89%
Mx1 (AML-12 cells): 0.08
OAS (AML-12 cells): 0.04
PkR (AML-12 cells): 0.02
Fold Induction of Cytokine-dependent ISRE Signaling in HepG2 Cells [2]: 4.7 fold
liver histology: liver and inflammation scores versus PBS-treated group (adenoviral vector AdGFP): lower liver and inflammation scores
average serum AST (adenoviral vector AdGFP; n=8): 193 U/L
relative liver fluorescence (adenoviral vector AdGFP; n=8): 34.5 arbitrary units
serum ALT (adenoviral vector AdGFP; n=8): 216 U/L
